Patent publication US20140161821A1, “TREATMENT WITH ANTI-PCSK9 ANTIBODIES” (PFIZER INC., priority 2011, published 2014)

Target: T1, PCSK9 (Homo sapiens, UniProt Q8NBP7)
T1 construct: PCSK9 antagonist antibody that antagonizes circulating PCSK9; endogenous in cells; host or cells: human subjects in clinical trials (in vivo, circulating PCSK9)
Assay: Example 2 clinical study, single escalating IV doses: fasting lipids
Format: in vivo
Method: The study entailed a randomized, placebo-controlled, ascending, single dose study of L1L3. The subjects, investigator, and site personnel (except site personnel responsible for drug preparation) were blinded to treatment assignments, as was the CRO designee; while the Sponsor clinical research team was unblinded. The study was conducted in 6 planned cohorts of 8 subjects per cohort in an effort to seek a maximum tolerated dose or MTD (total of approximately 48 subjects). […] Doses were administered following an overnight fast as an intravenous infusion over 60 minutes. […] Infusions will be administered as a single infusion over 60 minutes.
Change in serum lipids (total cholesterol, LDL, HDL, Triglycerides, Non-HDL-C and Apoprotein B) were assessed.
Collection of fasting lipid profile was performed after at least a 10-hour fast (total cholesterol, LDL, HDL, Non-HDL Cholesterol, Apo B and triglycerides).

T1 sequence (Q8NBP7 153-692): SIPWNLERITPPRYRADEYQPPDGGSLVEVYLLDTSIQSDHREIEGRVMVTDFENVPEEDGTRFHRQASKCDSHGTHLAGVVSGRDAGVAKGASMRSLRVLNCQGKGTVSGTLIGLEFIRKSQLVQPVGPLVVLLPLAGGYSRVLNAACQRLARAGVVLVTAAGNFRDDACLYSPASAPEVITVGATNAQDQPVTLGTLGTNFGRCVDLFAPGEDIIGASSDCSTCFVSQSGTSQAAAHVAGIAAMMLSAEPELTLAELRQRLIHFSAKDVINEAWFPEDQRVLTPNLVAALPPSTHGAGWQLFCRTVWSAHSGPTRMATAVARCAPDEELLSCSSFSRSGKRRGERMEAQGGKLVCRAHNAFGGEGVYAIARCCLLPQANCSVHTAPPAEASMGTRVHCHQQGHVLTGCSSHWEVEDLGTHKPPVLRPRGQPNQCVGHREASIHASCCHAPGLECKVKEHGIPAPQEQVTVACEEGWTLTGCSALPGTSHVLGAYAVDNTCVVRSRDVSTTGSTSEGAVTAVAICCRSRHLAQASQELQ
T1 sequence (Q8NBP7 31-152 partner limits assumed): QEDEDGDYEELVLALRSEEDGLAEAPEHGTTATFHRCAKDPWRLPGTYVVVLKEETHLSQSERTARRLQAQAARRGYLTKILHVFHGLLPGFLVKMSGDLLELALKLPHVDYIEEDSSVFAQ

B1: L1L3: humanized (<5% murine residues) monoclonal PCSK9 antagonist antibody that binds to secreted PCSK9; VH SEQ ID NO: 11, VL SEQ ID NO: 12 (antibody, V domains shown)
VH: QVQLVQSGAEVKKPGASVKVSCKASGYTFTSYYMHWVRQAPGQGLEWMGEISPFGGRTNYNEKFKSRVTMTRDTSTSTVYMELSSLRSEDTAVYYCARERPLYASDLWGQGTTVTVSS
VL: DIQMTQSPSSLSASVGDRVTITCRASQGISSALAWYQQKPGKAPKLLIYSASYRYTGVPSRFSGSGSGTDFTFTISSLQPEDIATYYCQQRYSLWRTFGQGTKLEIK
modifications: heavy chain variable region; light chain variable region
With B1 the “Fasting apolipoprotein B (apo B), % below baseline” value (0.3 mg/kg, by day 7) was “about 25%”, the “Fasting apolipoprotein B (apo B), % below baseline” value (1 mg/kg, by day 14) was “about 40%” and the “Fasting apolipoprotein B (apo B), % below baseline” value (3 mg/kg, by day 14) was “about 40%”. The “Fasting apolipoprotein B (apo B), % below baseline” value (3 mg/kg, by day 28) was “about 50%”, the “Fasting LDL-C levels” value (6 mg/kg or 12 mg/kg, by day 14 post-dosing) was “about 55 mg/dL” and the “Fasting apolipoprotein B (apo B), % below baseline” value (6 mg/kg, by day 14) was “about 40%”. For the same molecule, the “Fasting apolipoprotein B (apo B), % below baseline” value (6 mg/kg, by day 21) was “about 50%”, the “Fasting apolipoprotein B (apo B), % below baseline” value (6 mg/kg, generally, remainder of the study) was over 30% and the “LDL-C percentage change from baseline (lowering)” value (18 mg/kg, FIG. 2) was “up to 83%”. For the same molecule, the “Fasting LDL-C levels” value (18 mg/kg, by day 14 post-dosing) was “about 20 mg/dL”, the “Fasting LDL-C levels” value (1, 3, 6, 12, or 18 mg/kg, by day 14 post-dosing) was at most 70 mg/dL and the “Fasting apolipoprotein B (apo B), % below baseline” value (12 or 18 mg/kg, by day 14, baseline about 119 mg/dL) was “about 50%”. The “Fasting apolipoprotein B (apo B), % below baseline” value (12 or 18 mg/kg, remainder of the study after day 14) was at least 50%, the “Earliest day LDL-C lowering effects were seen” value (all dosage groups) was 3 days and the “Day of maximum percentage LDL-C lowering” value (in general, all dosage groups) was “Day 15 or Day 22”. For the same molecule, the “Duration of maximum LDL-C lowering effect” value (single 0.3 mg/kg) was 7 days, the “Fasting total cholesterol (TC), % reduced” value (single 0.3 mg/kg, by about day 9) was “about 25%” and the “Fasting LDL-C levels” value (single 0.3 mg/kg, day 7 post-dosing) was “about 85 mg/dL”. The “Fasting LDL-C levels” value (single 0.3 mg/kg, until about 10 days post-dosing) was “below 100 mg/dL”, the “Duration of maximum LDL-C lowering effect” value (single 1.0 mg/kg) was 14 days and the “Fasting total cholesterol (TC), % below baseline” value (single 1 mg/kg, by about day 15) was “about 36%”. For the same molecule, the “Fasting LDL-C levels” value (single 1 mg/kg, day 14 post-dosing) was “about 65 mg/dL”, the “Fasting LDL-C levels” value (single 1 mg/kg, until about 21 days post-dosing) was “below 100 mg/dL” and the “Duration of maximum LDL-C lowering effect” value (single 3.0 mg/kg) was “up to 4 weeks”. The “Fasting total cholesterol (TC), % below baseline” value (single 3 mg/kg, by about day 9) was “about 30%”, the “Fasting total cholesterol (TC), % below baseline” value (single 3 mg/kg, by about day 22) was “about 40%” and the “Fasting LDL-C levels” value (single 3 mg/kg, day 14 post-dosing) was “about 70 mg/dL”. For the same molecule, the “Fasting LDL-C levels” value (single 3 mg/kg, day 21 post-dosing) was “about 60 mg/dL”, the “LDL-C levels, % below baseline” value (single 3 mg/kg, maintained up to 29 days post administration) was over 60% and the “LDL-C levels, % below baseline” value (single 3 mg/kg, maintained up to 50 days post administration) was over 20%. The “Fasting LDL-C levels” value (single 3 mg/kg, until about 36 days post-dosing) was “below 100 mg/dL”, the “LDL-C levels, % below baseline” value (single 6 mg/kg or 12 mg/kg, maintained up to 43 days post administration) was over 60% and the “Duration of maximum LDL-C lowering effect” value (single 6 mg/kg, 12 mg/kg, and 18 mg/kg) was “more than 6 weeks”. The “Fasting total cholesterol (TC), % below baseline” value (single 6 mg/kg, by about day 9 until about day 52 post-dosing) was at least 30%, the “Fasting total cholesterol (TC), % below baseline, in a number of subjects” value (single 6 mg/kg, by day 30 post-dosing) was over 50% and the “Fasting LDL-C levels” value (single 6 mg/kg, for about 42 days post-dosing) was “below 50 mg/dL”. The “Fasting LDL-C levels” value (single 6 mg/kg, until at least about 57 days post-dosing) was “below 100 mg/dL”, the “Fasting LDL-C levels” value (single 12 mg/kg, until at least about 57 days post-dosing (end of study)) was at most 60 mg/dL and the “LDL-C levels, % below baseline” value (single 18 mg/kg, maintained at least up to 57 days post administration) was over 65%. For the same molecule, the “Fasting LDL-C levels” value (single 18 mg/kg, until at least about 57 days post-dosing) was “below 50 mg/dL”, the “Fasting total cholesterol (TC), % below baseline” value (single 12 or 18 mg/kg, by about day 9, lasting at least to day 57, baseline about 230 mg/dL) was at least 30% and the “Fasting total cholesterol (TC), % below baseline, in a number of subjects” value (single 12 or 18 mg/kg, by day 15 post-dosing) was over 50%. The “mean percentage change from baseline of fasting LDL-C” value (“mean percentage change from baseline” for short) (single IV 0.3 mg/kg, visit day 1) was 0.000%, the “mean percentage change from baseline” value (single IV 0.3 mg/kg, visit day 2) was −15.8% and the “mean percentage change from baseline” value (single IV 0.3 mg/kg, visit day 3) was −14.13%. The “mean percentage change from baseline” value (single IV 0.3 mg/kg, visit day 4) was −30.14%, the “mean percentage change from baseline” value (single IV 0.3 mg/kg, visit day 8) was −42.86% and the “mean percentage change from baseline” value (single IV 0.3 mg/kg, visit day 15) was −23.68%. The “mean percentage change from baseline” value (single IV 0.3 mg/kg, visit day 22) was −11.36%, the “mean percentage change from baseline” value (single IV 0.3 mg/kg, visit day 29) was −9.12% and the “mean percentage change from baseline” value (single IV 1 mg/kg, visit day 1) was 0.000%. For the same molecule, the “mean percentage change from baseline” value (single IV 1 mg/kg, visit day 2) was −0.33%, the “mean percentage change from baseline” value (single IV 1 mg/kg, visit day 3) was −9.79% and the “mean percentage change from baseline” value (single IV 1 mg/kg, visit day 4) was −19.14%. For the same molecule, the “mean percentage change from baseline” value (single IV 1 mg/kg, visit day 8) was −33.33%, the “mean percentage change from baseline” value (single IV 1 mg/kg, visit day 15) was −50.50% and the “mean percentage change from baseline” value (single IV 1 mg/kg, visit day 22) was −22.40%. The “mean percentage change from baseline” value (single IV 1 mg/kg, visit day 29) was −3.36%, the “mean percentage change from baseline” value (single IV 3 mg/kg, visit day 1) was 0.000% and the “mean percentage change from baseline” value (single IV 3 mg/kg, visit day 2) was −1.97%. The “mean percentage change from baseline” value (single IV 3 mg/kg, visit day 3) was −13.20%, the “mean percentage change from baseline” value (single IV 3 mg/kg, visit day 4) was −19.10% and the “mean percentage change from baseline” value (single IV 3 mg/kg, visit day 8) was −39.78%. For the same molecule, the “mean percentage change from baseline” value (single IV 3 mg/kg, visit day 15) was −57.93%.
